Source: patent US6911526B2, “Compounds that inhibit the interaction between signal-transducing proteins and the GLGF (PDZ/DHR) domain and uses thereof” (The Trustees of Columbia University in the City of New York, priority 1996, dated 2005)
Entries after “also recorded” stand apart in the source; their conditions may differ. Where no end group is shown, it is not given here.

How the values were obtained:
Fas/FAP-1 binding [1] = assay: In vitro inhibition assay of Fas/FAP-1 binding (GST-Fas and in vitro-translated 35S-FAP-1); details: for binding of in vitro-translated FAP-1 to GST-Fas: FIG. 3A, C-terminal 15 amino acids at 1-1000 μM, human PAMP 1 mM as negative control
Method: HFAP-10 cDNA (Sato, et al. 1995) subcloned into the Bluescript vector pSK-II (Stratagene) was in vitro-translated from an internal methionine codon in the presence of ^35S-L-methionine using a coupled in vitro transcription/translation system (Promega, TNT lysate) and T7 RNA polymerase. The resulting ^35S-labeled protein was incubated with GST-Fas fusion proteins that had been immobilized on […] affinity beads (Pharmacia) in a buffer containing 150 mM NaCl, 50 mM Tris [pH 8.0], 5 mM DTT, 2 mM EDTA, 0.1% NP-40, 1 mM PMSF, 50 μg/ml leupeptin, 1 mM Benzamidine, and 7 μg/ml pepstatin for 16 hours at 4° C. After washing vigorously 4 times in the same buffer, associated proteins were recovered with the glutathione-Sepharose beads by centrifugation, eluted into boiling Laemmli buffer, and analyzed by SDS-PAGE and fluorography.
In vitro-translated [^35S]HFAP-1 was purified with a NAP-5 column (Pharmacia) and incubated with 3 μM of GST-fusion proteins for 16 hours at 4° C. After washing 4 times in the binding buffer, radioactivity incorporation was determined in a b counter. The percentage of binding inhibition was calculated as follows: percent inhibition=[radioactivity incorporation using GST-Fas (191-335) with peptides−radioactivity incorporation using GST-Fas (191-320) with peptides]/[radioactivity incorporation using GST-Fas (191-335) without peptides−radioactivity incorporation using GST-Fas (191-320) without peptides]. n=3.

Fas/FAP-1 binding [2] = assay: Inhibition of binding of GST-FAP-1 to native Fas extracted from Jurkat T-cells (Western analysis); details: GST-FAP-1, Jurkat T-cell extracts; FIGS. 4C and 4D
Method: GST-fusion proteins with or without FAP-1 were incubated with cell extracts from Jurkat T-cells expressing Fas. The bound Fas was detected by Western analysis using anti-Fas monoclonal antibody (F22120, Transduction Laboratories). The tripeptides, Ac-SLV and Ac-SLY were used for the inhibition assay of Pas/FAP-1 binding.

[3] = tested on: DLD-1 human colon cancer cells; assay: Microinjection of synthetic tripeptides into DLD-1 cells, Fas-induced apoptosis; type: cell-based; details: tripeptide 100 mM microinjected into cytoplasm, Fas monoclonal antibody CH11 500 ng/ml, 16-20 hours postinjection, condensed chromatin (Hoechst 33342)
Method: DLD-1 human colon cancer cells were cultured in RPMI 1640 medium containing 10% FCS. For microinjection, cells were plated on CELLocate (Eppendorf) at 1×10^5 cells/2 ml in a 35 mm plastic culture dish and grown for 1 day. Just before microinjection, Fas monoclonal antibodies CH11 (MBL International) was added at the concentration of 500 ng/ml. All microinjection experiments were performed using an automatic microinjection system (Eppendorf transjector 5246, micro-manipulator 5171 and Femtotips) (Pantel, et al. 1995). Synthetic tripeptides were suspended in 0.1% (w/v) FITC-Dextran (Sigma)/K-PBS at the concentration of 100 mM. The samples were microinjected into the cytoplasmic region of DLD-1 cells. Sixteen to 20 hours postinjection, the cells were washed with PBS and stained with 10 μg/ml Hoechst 33342 in PBS. After incubation at 37° C. for 30 minutes, the cells were photographed and the cells showing condensed chromatin were counted as apoptotic.
For each experiment, 25-100 cells were microinjected. Apoptosis of microinjected cells was determined by assessing morphological changes of chromatin using phase contrast and fluorescence microscopy (Wang, et al., 1995; McGahon, et al., 1995). The data are means +/− S.D. for two or three independent determinations.

FAP-1 = assay: Interaction of C-terminal tripeptides fused to LexA with FAP-1 in yeast two-hybrid system; type: cell-based; details: LexA fusion co-transformed into yeast L40 with pVP16-FAP-1; FIG. 4A
Text: The bait plasmids, pBTM116 (LexA)-SLV, -PLV, -SLY, and -SLA, were constructed and transformed into L40-strain with pVP16-FAP-1 or -ras. Six independent clones from each transformants were picked up for the analysis of growth on histidine-deficient medium. GST-Fas, -SLV, and PLV were purified with GST-Sepharose 4B affinity beads (Pharmacia). The methods for in vitro binding are described above.

LexA-PLV fusion protein = target: T1, LexA-PLV fusion protein (UniProt P0A7C2 1-202); assay: yeast two-hybrid (growth on histidine-deficient medium)
T1 construct: Yeast two-hybrid bait; also called pBTM116 (LexA)-PLV; -PLy
T1 sequence: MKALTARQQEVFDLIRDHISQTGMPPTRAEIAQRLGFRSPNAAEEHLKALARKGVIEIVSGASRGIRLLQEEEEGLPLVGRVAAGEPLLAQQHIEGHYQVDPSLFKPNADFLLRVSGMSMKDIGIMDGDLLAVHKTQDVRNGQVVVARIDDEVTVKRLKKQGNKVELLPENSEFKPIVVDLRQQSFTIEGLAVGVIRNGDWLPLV

LexA-SLY fusion protein = target: T2, LexA-SLY fusion protein (UniProt P0A7C2 1-202); assay: as above
T2 construct: Yeast two-hybrid bait; also called pBTM116 (LexA)-SLY
T2 sequence: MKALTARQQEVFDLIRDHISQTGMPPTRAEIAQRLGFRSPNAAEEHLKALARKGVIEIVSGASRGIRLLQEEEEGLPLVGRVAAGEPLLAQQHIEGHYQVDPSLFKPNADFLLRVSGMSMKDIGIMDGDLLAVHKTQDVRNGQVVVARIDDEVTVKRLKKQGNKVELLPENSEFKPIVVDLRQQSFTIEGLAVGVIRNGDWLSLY

LexA-SLA fusion protein = target: T3, LexA-SLA fusion protein (UniProt P0A7C2 1-202); assay: as above
T3 construct: Yeast two-hybrid bait; also called pBTM116 (LexA)-SLA
T3 sequence: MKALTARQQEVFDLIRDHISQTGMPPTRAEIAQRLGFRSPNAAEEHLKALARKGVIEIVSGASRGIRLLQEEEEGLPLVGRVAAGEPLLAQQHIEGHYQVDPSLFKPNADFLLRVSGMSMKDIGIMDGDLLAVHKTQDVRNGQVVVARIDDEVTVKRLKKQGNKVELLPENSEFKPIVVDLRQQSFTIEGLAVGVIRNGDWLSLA

## human PAMP peptide: N-terminal 20 amino acids of proadrenomedullin, negative control (ARLDVASEFRKKWNKWALSR) [reference compound]
Fas/FAP-1 binding [1]
  binding of in vitro-translated FAP-1 to GST-Fas: no effect

## Ac-SLY: acetylated synthetic tripeptide SLY, used as non-binding control (Ac-Ser-Leu-Tyr)
Fas/FAP-1 binding [2]
  binding activity of FAP-1 to Fas proteins extracted from Jurkat T-cells: not
[3]
  induction of apoptosis in microinjected DLD-1 cells: did not; also recorded: only one cell of the area appeared apoptotic

## DSENSNFRNEIQSLV (Ac-DSENSNFRNEIQSLV) [synthetic 15 amino acids of Fas, synthetic peptide of the C-terminal 15 amino acids of Fas]
Fas/FAP-1 binding [1]
  binding of in vitro-translated FAP-1 to GST-Fas: dramatically reduced and dependent on the concentration

## Ac-SLV-COOH (Ac-Ser-Leu-Val-OH) [acetylated tripeptide of the three C-terminal amino acids of Fas]
Fas/FAP-1 binding [1]; FIG. 3B, acetylated synthetic peptides
  inhibitory effect on the binding of FAP-1 to Fas, truncated acetylated peptides: same level of inhibitory effect
Fas/FAP-1 binding [2]
  binding activity of FAP-1 to Fas proteins extracted from Jurkat T-cells: abolished in a dose-dependent manner
[3]
  induction of apoptosis in microinjected DLD-1 cells: dramatically induced apoptosis

B1: LexA-SLV: LexA DNA binding domain fused to tripeptide SLV (yeast bait) (protein)
chain: MKALTARQQEVFDLIRDHISQTGMPPTRAEIAQRLGFRSPNAAEEHLKALARKGVIEIVSGASRGIRLLQEEEEGLPLVGRVAAGEPLLAQQHIEGHYQVDPSLFKPNADFLLRVSGMSMKDIGIMDGDLLAVHKTQDVRNGQVVVARIDDEVTVKRLKKQGNKVELLPENSEFKPIVVDLRQQSFTIEGLAVGVIRNGDWLSLV
FAP-1
  association with FAP-1 in yeast (growth on histidine-deficient medium): associated with FAP-1

B2: LexA-PLV: LexA DNA binding domain fused to tripeptide PLV (yeast bait) (protein)
chain: MKALTARQQEVFDLIRDHISQTGMPPTRAEIAQRLGFRSPNAAEEHLKALARKGVIEIVSGASRGIRLLQEEEEGLPLVGRVAAGEPLLAQQHIEGHYQVDPSLFKPNADFLLRVSGMSMKDIGIMDGDLLAVHKTQDVRNGQVVVARIDDEVTVKRLKKQGNKVELLPENSEFKPIVVDLRQQSFTIEGLAVGVIRNGDWLPLV
FAP-1
  association with FAP-1 in yeast (growth on histidine-deficient medium): did not

B3: LexA-PLY: LexA DNA binding domain fused to tripeptide PLY (yeast bait) (protein)
chain: MKALTARQQEVFDLIRDHISQTGMPPTRAEIAQRLGFRSPNAAEEHLKALARKGVIEIVSGASRGIRLLQEEEEGLPLVGRVAAGEPLLAQQHIEGHYQVDPSLFKPNADFLLRVSGMSMKDIGIMDGDLLAVHKTQDVRNGQVVVARIDDEVTVKRLKKQGNKVELLPENSEFKPIVVDLRQQSFTIEGLAVGVIRNGDWLPLY
FAP-1
  association with FAP-1 in yeast (growth on histidine-deficient medium): did not

B4: LexA-SLA: LexA DNA binding domain fused to tripeptide SLA (yeast bait) (protein)
chain: MKALTARQQEVFDLIRDHISQTGMPPTRAEIAQRLGFRSPNAAEEHLKALARKGVIEIVSGASRGIRLLQEEEEGLPLVGRVAAGEPLLAQQHIEGHYQVDPSLFKPNADFLLRVSGMSMKDIGIMDGDLLAVHKTQDVRNGQVVVARIDDEVTVKRLKKQGNKVELLPENSEFKPIVVDLRQQSFTIEGLAVGVIRNGDWLSLA
FAP-1
  association with FAP-1 in yeast (growth on histidine-deficient medium): did not

B5: LexA-SLY: LexA DNA binding domain fused to tripeptide SLY (yeast bait) (protein)
chain: MKALTARQQEVFDLIRDHISQTGMPPTRAEIAQRLGFRSPNAAEEHLKALARKGVIEIVSGASRGIRLLQEEEEGLPLVGRVAAGEPLLAQQHIEGHYQVDPSLFKPNADFLLRVSGMSMKDIGIMDGDLLAVHKTQDVRNGQVVVARIDDEVTVKRLKKQGNKVELLPENSEFKPIVVDLRQQSFTIEGLAVGVIRNGDWLSLY
FAP-1
  association with FAP-1 in yeast (growth on histidine-deficient medium): did not

B6: FAP-1 expressed from plasmid pVP16-31 (VP16 fusion, yeast two-hybrid prey) (other)
chain: KMNFKTFSSSPPKPGDIFEVELAKNDNSLGISVTGGVNTSVRHGGIYVKAVIPQGAAESDGRIHKGDRVLAVNGVSLEGATHKQAVETLRNTGQVVHLLLEKGQSPTSKEHVPVTPQCTLS
notes: also called pVP16-FAP-1; Fas-associated phosphatase-1
LexA-PLV fusion protein
  binding result: no binding
LexA-SLY fusion protein
  binding result: no binding
LexA-SLA fusion protein
  binding result: no binding
